Data as given in PMC10457294 (2023).

T1: CPXV M2 (cowpox virus M2), recombinant, His-tagged (cowpox virus, UniProt Q8QN22 18-220)
T1 chain: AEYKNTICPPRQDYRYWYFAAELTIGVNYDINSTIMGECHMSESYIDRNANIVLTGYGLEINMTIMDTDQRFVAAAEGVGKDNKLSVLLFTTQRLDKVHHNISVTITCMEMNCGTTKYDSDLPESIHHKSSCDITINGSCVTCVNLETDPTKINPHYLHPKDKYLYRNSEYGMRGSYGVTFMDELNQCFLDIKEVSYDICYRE

B1: mouse B7.1 ectodomain fused to human Fc (Fc fusion)
chain: VDEQLSKSVKDKVLLPCRYNSPHEDESEDRIYWQKHDKVVLSVIAGKLKVWPEYKNRTLYDNTTYSLIILGLVLSDRGTYSCVVQKKERGTYEVKHLALVKLSIKADFSTPNITESGNPSADTKRITCFASGGFPKPRFSWLENGRELPGINTTISQDPESELYTISSQLDFNTTRNHTIKCLIKYGDAHVSEDFTWEKPPEDPPDSK
B2: human B7.2 ectodomain, His-tagged (domain or fragment)
chain: LKIQAYFNETADLPCQFANSQNQSLSELVVFWQDQENLVLNEVYLGKEKFDSVHSKYMGRTSFDSDSWTLRLHNLQIKDKGLYQCIIHHKKPTGMIRIHQMNSELSVLANFSQPEIVPISNITENVYINLTCSSIHGYPEPKKMSVLLRTKNSTIEYDGVMQKSQDNVTELYDVSISLSVSFPDVTSNMTIFCILETDKTRLLSSPFSIELED
B3: human B7.2 ectodomain fused to human Fc (Fc fusion)
chain: B2 chain
B4: mouse B7.2 ectodomain fused to human Fc (Fc fusion)
chain: VSVETQAYFNGTAYLPCPFTKAQNISLSELVVFWQDQQKLVLYEHYLGTEKLDSVNAKYLGRTSFDRNNWTLRLHNVQIKDMGSYDCFIQKKPPTGSIILQQTLTELSVIANFSEPEIKLAQNVTGNSGINLTCTSKQGHPKPKKMYFLITNSTNEYGDNMQISQDNVTELFSISNSLSLSFPDGVWHMTVVCVLETESMKISSKPLNFTQEFPSPQTYWKE
B5: human B7.1 ectodomain fused to human Fc (Fc fusion)
chain: VIHVTKEVKEVATLSCGHNVSVEELAQTRIYWQKEKKMVLTMMSGDMNIWPEYKNRTIFDITNNLSIVILALRPSDEGTYECVVLKYEKDAFKREHLAEVTLSVKADFPTPSISDFEIPTSNIRRIICSTSGGFPEPHLSWLENGEELNAINTTVSQDPETELYAVSSKLDFNMTTNHSFMCLIKYGHLRVNQTFNWNTT
B6: human B7.1 ectodomain, His-tagged (domain or fragment)
chain: B5 chain

Legend:
Assay in all cases: BLI
[1] = molecular target: T1, CPXV M2 (cowpox virus M2), recombinant, …
[2] = molecular target: T2, MPXV M2 (monkeypox virus M2 protein), His-tagged, wild type (monkeypox virus (Clade I), UniProt Q8V554 18-220)
[3] = molecular target: T1, CPXV M2 (cowpox virus M2), recombinant, …
[4] = molecular target: T2, MPXV M2 (monkeypox virus M2 protein), …; remark: listed apart in the source
[5] = molecular target: MPXV Bio-M2 (site-specifically biotinylated MPXV Avi-M2) (monkeypox virus (Clade I), UniProt Q8V554 18-220)

Binder | koff [1] | koff [2] | Kd [3] | Kd [4] | koff [5]
B1 | 0.000109 s⁻¹ | 2.92e-05 s⁻¹ | 1.48 nM | 0.243 nM | 
B2 |  |  |  |  | 0.0334 s⁻¹
B3 |  | 9.75e-06 s⁻¹ |  |  | 
B4 | 0.000363 s⁻¹ | 0.689 s⁻¹ | 8 nM | 13600 nM | 
B5 |  | 2.91e-05 s⁻¹ |  |  | 
B6 |  |  |  |  | 0.00676 s⁻¹
